Data: paper PMC10683472, “Deep Learning-Driven Library Design for the De Novo Discovery of Bioactive Thiopeptides” (ACS Central Science, 2023)
*1 amine or outer side, *2 acyl side, *3 side chain or, on linkers, in order; H or OH if unused. Where a SMILES comes first, the peptide text is derived from it. Bridges are numbered along the chain shown (N, C = ends). [ ]: non-standard residue; d: D form. X2 = C=C(N[*:2])c1nc(-c2nc(-c3nc(C(=O)OC)cs3)ccc2C(=O)[*:1])cs1; Nle = CCCC[C@H](N)C(=O)O; Dha = C=C(N)C(=O)O

Key:
TLR10 [1] = biological target: T1, TLR10 (Homo sapiens, UniProt Q9BXR5); test: Single-round mRNA display binding assay (qPCR), TLR10; conditions: ratio of cDNA recoveries (qPCR), TLR10 pulldown over beads only, single-round selection
T1 sequence (Q9BXR5 20-576): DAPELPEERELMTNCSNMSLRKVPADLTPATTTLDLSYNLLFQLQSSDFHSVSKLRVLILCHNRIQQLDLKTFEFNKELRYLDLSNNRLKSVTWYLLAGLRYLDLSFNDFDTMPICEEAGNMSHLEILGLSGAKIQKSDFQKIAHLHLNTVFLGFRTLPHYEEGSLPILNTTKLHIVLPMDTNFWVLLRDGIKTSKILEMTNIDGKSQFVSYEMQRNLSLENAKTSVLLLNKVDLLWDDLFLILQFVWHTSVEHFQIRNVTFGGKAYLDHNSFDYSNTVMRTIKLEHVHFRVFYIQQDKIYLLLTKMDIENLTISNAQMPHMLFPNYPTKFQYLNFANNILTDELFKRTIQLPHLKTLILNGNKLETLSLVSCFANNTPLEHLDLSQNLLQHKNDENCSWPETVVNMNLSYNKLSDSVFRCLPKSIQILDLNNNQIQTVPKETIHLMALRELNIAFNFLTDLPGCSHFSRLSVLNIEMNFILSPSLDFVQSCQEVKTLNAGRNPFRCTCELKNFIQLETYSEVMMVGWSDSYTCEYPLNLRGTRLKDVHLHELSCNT

Serum stability assay = type: in vitro ADME; conditions: pH 7.6; human serum, 37 °C, LC/MS; read-out: serum stability τ1/2 (converted)
Procedure: Next, we tested the metabolic stability of the discovered thiopeptides. The compounds were incubated in human serum at 37 °C in the presence of an internal control, and the amounts of the remaining analytes were quantified by LC/MS (Figures S27 and 28). […] At the other extreme, IR11 rapidly degraded in human serum with τ1/2 = 0.5 h. […]
Kinetic parameters and affinities of the […]
2.12. Thiopeptide metabolic stability experiments
The mixtures were stirred
well and transferred to a 37 °C thermostat. […]

TLR10 [2] = biological target: T1, TLR10; test: mRNA display affinity selection against TLR10, NGS abundance; type: binding; set-up: Chimera protein (extracellular domain, amino acid 20-576;); Fc (chimera); purchased R&D system #6619-TR-050; conditions: TLR10 selection, NGS abundance rank; for rank in pulldown(+): –: not found in the final pulldown(+) libraries at the sequenced depth
[3] = biological target: T2, Human TLR10 Fc Chimera protein (extracellular domain) (Homo sapiens, UniProt Q9BXR5); test: Surface plasmon resonance binding to TLR10; conditions: SPR
T2 construct: Chimera protein (extracellular domain, amino acid 20-576;); Fc (chimera); purchased R&D system #6619-TR-050
T2 sequence (Q9BXR5 20-576): T1 sequence (Q9BXR5 20-576)
Procedure: Reagents were purchased from Nacalai Tesque, Wako Pure Chemical Industries, Sigma-Aldrich Japan, or TCI Chemicals and were used as received. […]
Anti-HA magnetic beads were from Pierce Thermo […]
2000c spectrophotometer (Thermo Scientific) equipped with a 5 mm pathlength quartz cuvette using extinction coefficient values calculated with ExPASy ProtParam tool (https://web.expasy.org/protparam). […]
Biochemical measurements (sections 2.10 – 2.14) were performed in triplicate or more. Most […]
determination of biophysical parameters involved cell assay (CP50 and IC50), reported are standard errors of the fit; otherwise, error bars are standard deviations. […]

IRAK4 = biological target: T3, IRAK4 (Homo sapiens, UniProt Q9NWZ3); test: mRNA display affinity selection against IRAK4, NGS abundance; type: binding; set-up: acids 1-460; NP_057207.2) was purchased from Carna Biosciences; purchased Carna Biosciences (Kobe, Japan); conditions: Top100 selection hits, NGS
T3 sequence (Q9NWZ3 1-460): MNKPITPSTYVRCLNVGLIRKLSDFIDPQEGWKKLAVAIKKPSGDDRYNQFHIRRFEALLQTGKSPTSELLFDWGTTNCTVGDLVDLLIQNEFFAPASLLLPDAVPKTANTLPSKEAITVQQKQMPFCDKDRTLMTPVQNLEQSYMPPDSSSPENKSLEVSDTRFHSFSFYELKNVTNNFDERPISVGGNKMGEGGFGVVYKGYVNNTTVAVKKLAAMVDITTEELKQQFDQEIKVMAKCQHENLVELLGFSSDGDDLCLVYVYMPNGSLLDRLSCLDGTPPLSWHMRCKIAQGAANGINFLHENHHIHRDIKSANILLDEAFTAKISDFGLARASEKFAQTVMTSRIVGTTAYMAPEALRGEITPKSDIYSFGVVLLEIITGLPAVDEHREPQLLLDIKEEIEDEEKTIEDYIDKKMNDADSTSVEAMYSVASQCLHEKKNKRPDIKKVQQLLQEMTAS

Molecule	Library fraction (IRAK4; IRAK4 selection pulldown (+))	Raw reads (IRAK4; IRAK4 selection pulldown (+))	Library fraction (IRAK4; IRAK4 selection pulldown (-))	Raw reads (IRAK4; IRAK4 selection pulldown (-))	other results
C=C1NC(=O)[C@H](Cc2ccccc2)NC(=O)[C@H](C)NC(=O)[C@H]([C@@H](C)CC)NC(=O)[C@H](CCCCN)NC(=O)[C@H](CC(N)=O)NC(=O)[C@H](CCC(N)=O)NC(=O)[C@H](CC(N)=O)NC(=O)[C@H]([C@@H](C)O)NC(=O)[C@H](Cc2ccccc2)NC(=O)[C@H](CCCNC(=N)N)NC(=O)[C@H]([C@@H](C)CC)NC(=O)[C@H]([C@@H](C)O)NC(=O)[C@H](Cc2c[nH]c3ccccc23)NC(=O)c2ccc(-c3nc(C(=O)OC)cs3)nc2-c2csc1n2 [TL4] (HELM PEPTIDE1{W.T.I.R.F.T.N.Q.N.K.I.A.F}|CHEM1{[C=C(N[*:2])c1nc(-c2nc(-c3nc(C(=O)OC)cs3)ccc2C(=O)[*:1])cs1]}$PEPTIDE1,CHEM1,1:R1-1:R1|PEPTIDE1,CHEM1,13:R2-1:R2$$$V2.0; bridges inferred)	–	–	–	–	display P/N ratio (TLR10 [1]): 975; half-life at 10 µM (Serum stability assay): 4.4 ± 0.3 h; rank in pulldown(–) (TLR10 [2]): 3; rank in pulldown(+) (TLR10 [2]): 7; koff [3]: 0.033 s⁻¹; kon [3]: 47500 M⁻¹ s⁻¹
C=C1NC(=O)CNC(=O)[C@H]([C@@H](C)CC)NC(=O)[C@H]([C@@H](C)CC)NC(=O)CNC(=O)[C@H](CCC(N)=O)NC(=O)CNC(=O)[C@H](CCCC(N)=O)NC(=O)[C@H](Cc2c[nH]c3ccccc23)NC(=O)[C@H](C(C)C)NC(=O)[C@H]([C@@H](C)CC)NC(=O)[C@H](CC(N)=O)NC(=O)[C@H](CO)NC(=O)[C@H](Cc2c[nH]c3ccccc23)NC(=O)c2ccc(-c3nc(C(=O)OC)cs3)nc2-c2csc1n2 [TL10] (HELM PEPTIDE1{W.S.N.I.V.W.[O=C([C@H](CCCC(=O)[*:3])N[*:1])[*:2]].G.Q.G.I.I.G}|PEPTIDE2{[am]}|CHEM1{[C=C(N[*:2])c1nc(-c2nc(-c3nc(C(=O)OC)cs3)ccc2C(=O)[*:1])cs1]}$PEPTIDE1,PEPTIDE2,7:R3-1:R1|PEPTIDE1,CHEM1,1:R1-1:R1|PEPTIDE1,CHEM1,13:R2-1:R2$$$V2.0; bridges inferred)	–	–	–	–	display P/N ratio (TLR10 [1]): 352; half-life at 10 µM (Serum stability assay): 4.7 ± 0.3 h; rank in pulldown(–) (TLR10 [2]): 4; rank in pulldown(+) (TLR10 [2]): 1
C=C1NC(=O)[C@H](Cc2c[nH]c3ccccc23)NC(=O)CNC(=O)[C@H](C(C)C)NC(=O)[C@H](CC(N)=O)NC(=O)CNC(=O)CNC(=O)[C@H](Cc2ccc(O)cc2)NC(=O)[C@@H]2CCCN2C(=O)[C@H](CC(N)=O)NC(=O)[C@H]([C@@H](C)O)NC(=O)[C@H](Cc2c[nH]c3ccccc23)NC(=O)c2ccc(-c3nc(C(=O)OC)cs3)nc2-c2csc1n2 [TL1] (HELM PEPTIDE1{W.T.N.P.Y.G.G.N.V.G.W}|CHEM1{[C=C(N[*:2])c1nc(-c2nc(-c3nc(C(=O)OC)cs3)ccc2C(=O)[*:1])cs1]}$PEPTIDE1,CHEM1,1:R1-1:R1|PEPTIDE1,CHEM1,11:R2-1:R2$$$V2.0; bridges inferred)	–	–	–	–	display P/N ratio (TLR10 [1]): 127; half-life at 10 µM (Serum stability assay): 4.6 ± 0.3 h; rank in pulldown(–) (TLR10 [2]): 1; rank in pulldown(+) (TLR10 [2]): 3
C=C1NC(=O)[C@H](Cc2ccc(O)cc2)NC(=O)[C@H](C)NC(=O)[C@H](C(C)C)NC(=O)[C@H](CCCCN)NC(=O)CNC(=O)[C@H](CC(C)C)NC(=O)[C@H](CCCNC(=N)N)NC(=O)[C@@H]2CCCN2C(=O)[C@H](Cc2ccccc2)NC(=O)[C@H](CCCC)NC(=O)[C@H](CCCC)NC(=O)[C@H]([C@@H](C)O)NC(=O)[C@H](Cc2c[nH]c3ccccc23)NC(=O)c2ccc(-c3nc(C(=O)OC)cs3)nc2-c2csc1n2 [TL9] (HELM PEPTIDE1{W.T.[Nle].[Nle].F.P.R.L.G.K.V.A.Y}|CHEM1{[C=C(N[*:2])c1nc(-c2nc(-c3nc(C(=O)OC)cs3)ccc2C(=O)[*:1])cs1]}$PEPTIDE1,CHEM1,1:R1-1:R1|PEPTIDE1,CHEM1,13:R2-1:R2$$$V2.0)	–	–	–	–	display P/N ratio (TLR10 [1]): 235; half-life at 10 µM (Serum stability assay): 1.7 ± 0.1 h; rank in pulldown(–) (TLR10 [2]): 37; rank in pulldown(+) (TLR10 [2]): 22
MMLWKRRMYK	0.0001	15	–	–	–
C=C1NC(=O)[C@H]([C@@H](C)CC)NC(=O)[C@H](CO)NC(=O)[C@H](CC(=O)O)NC(=O)[C@H](CCCNC(=N)N)NC(=O)[C@H](C)NC(=O)[C@H](CCCC)NC(=O)C(=C)NC(=O)CNC(=O)[C@@H]2CCCN2C(=O)[C@H](Cc2c[nH]c3ccccc23)NC(=O)c2ccc(-c3nc(C(=O)OC)cs3)nc2-c2csc(n2)C(=C)NC1=O [TL18] (WPG[Dha][Nle]ARDSI[Dha]; linker N-C via X2)	–	–	–	–	display P/N ratio (TLR10 [1]): 380; half-life at 10 µM (Serum stability assay): 2.5 ± 0.1 h; rank in pulldown(–) (TLR10 [2]): 10; rank in pulldown(+) (TLR10 [2]): 13
SLLYKRRIYK	0.044	4704	0.026	3431	–
SLLWKRRICR	0.0006	65	0.00016	21	–
SQLWNRRLYK	0.0009	93	0.00059	79	–

More lines, main results first:

Library fraction (IRAK4; IRAK4 selection pulldown (+))	Raw reads (IRAK4; IRAK4 selection pulldown (+))	Library fraction (IRAK4; IRAK4 selection pulldown (-))	Raw reads (IRAK4; IRAK4 selection pulldown (-))	Molecule	other results
0.024	2567	0.011	1518	TLCWRRRNYK	–
0.0001	11	–	–	SIYWKRRRYK	–
0.0002	25	0.00025	33	RLLWKRRNYQ	–
–	–	0.00011	15	SARWRRRNYS	–
0.0001	15	–	–	SMLFKRRIYR	–
–	–	0.00016	21	SMQRRVIKWTWA	–
0.0001	9	–	–	TMLWKRRLFR	–
0.0001	11	–	–	SLLWKRRMMK	–
0.080	8519	0.046	6174	SLLWRRRVYK	–
0.0001	16	7e-5	10	SMLWRRRKYA	–
0.180	19248	0.066	8762	SLLWKRRIMK	–
0.0002	19	–	–	SLLWHRRIYC	–
0.0035	369	0.00093	124	SILWKKHIYK	–
